FireProtDB (doi:10.1074/jbc.270.30.17712)
Values joined by “and” are separate entries in the source; they are usually repeats but may differ in a detail not shown here. Equal values may be shown once.

Conditions: Escherichia coli (strain K12); pH 7.8; 23 °C; Urea; Absorbance; Potassium phosphate 10 mM; transition: 3; reversible: yes; whole UniProt chain shown

B1: Tryptophan synthase alpha chain wild type, P0A877 (protein)
chain: MERYESLFAQLKERKEGAFVPFVTLGDPGIEQSLKIIDTLIEAGADALELGIPFSDPLADGPTIQNATLRAFAAGVTPAQCFEMLALIRQKHPTIPIGLLMYANLVFNKGIDEFYAQCEKVGVDSVLVADVPVEESAPFRQAALRHNVAPIFICPPNADDDLLRQIASYGRGYTYLLSRAGVTGAENRAALPLNHLVAKLKEYNAAPPLQGFGISAPDQVKAAIDAGAAGAISGSAIVKIIEQHINEPEKMLAALKVFVQPMKAATRS
  denaturant m value: 2.5 kcal/mol/M and 1.4 kcal/mol/M
  denaturant midpoint (higher = more stable): 2.51 M and 3.73 M
  unfolding free energy: 6.4 kcal/mol and 5.2 kcal/mol
